# System: Escherichia coli TOP10
# Experiment: shrunken log2 fold change of peptide-encoding DNA abundance (4.5 h post-induction vs induction); higher = less antimicrobial activity (less host growth inhibition)
# Conditions: time post-induction: 4.5 h; library: site-saturation at positions 5, 18, 19, 20
# 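Also: peptides expressed intracellularly from a pBAD plasmid library in pooled LB shake-flask culture, induced with 0.3% L-arabinose, DNA abundance read by NGS, three biological replicates, DESeq2 with apeglm shrinkage.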
row,Sequence,shrunken log2 fold change
1,RRIRKRPPRLPRPRPRPQSQPRP,0.249
2,RRIRGRPPRLPRPRPRPVQYPRP,0.118
3,RRIRARPPRLPRPRPRPLAGPRP,2.52
4,RRIRERPPRLPRPRPRPVRIPRP,-0.0343
5,RRIRERPPRLPRPRPRPTRNPRP,0.22
6,RRIRFRPPRLPRPRPRPHMLPRP,0.798
7,RRIRIRPPRLPRPRPRPNGEPRP,-0.0757
8,RRIRCRPPRLPRPRPRPCYLPRP,-0.684
9,RRIRKRPPRLPRPRPRPFRVPRP,-0.035
10,RRIRYRPPRLPRPRPRPIFCPRP,-0.201
11,RRIRVRPPRLPRPRPRPALYPRP,0.22
12,RRIRKRPPRLPRPRPRPNASPRP,0.236
13,RRIRYRPPRLPRPRPRPHRLPRP,-0.0157
14,RRIRHRPPRLPRPRPRPCLEPRP,-0.0502
15,RRIRNRPPRLPRPRPRPEWIPRP,-0.16
16,RRIRIRPPRLPRPRPRPMVHPRP,-0.0468
17,RRIRCRPPRLPRPRPRPGTRPRP,0.139
18,RRIRLRPPRLPRPRPRPKCMPRP,-0.152
19,RRIRMRPPRLPRPRPRPPHWPRP,0.898
20,RRIRCRPPRLPRPRPRPWVCPRP,0.0107
21,RRIRQRPPRLPRPRPRPMIHPRP,-0.471
22,RRIRARPPRLPRPRPRPMEHPRP,-0.223
23,RRIRWRPPRLPRPRPRPERFPRP,-0.0212
24,RRIRARPPRLPRPRPRPDFDPRP,1.07
25,RRIRCRPPRLPRPRPRPPWAPRP,0.317

row,Sequence,shrunken log2 fold change
1,RRIRQRPPRLPRPRPRPRHCPRP,-0.0425
2,RRIRSRPPRLPRPRPRPCVTPRP,0.0116
3,RRIRHRPPRLPRPRPRPFEKPRP,-0.0199
4,RRIRTRPPRLPRPRPRPNTWPRP,-0.178
5,RRIRPRPPRLPRPRPRPHYAPRP,-0.15
6,RRIRFRPPRLPRPRPRPYGLPRP,-0.521
7,RRIRGRPPRLPRPRPRPTWSPRP,0.977
8,RRIRERPPRLPRPRPRPLNTPRP,-1.11
9,RRIRKRPPRLPRPRPRPSKVPRP,-0.131
10,RRIRSRPPRLPRPRPRPIQFPRP,-0.396
11,RRIRLRPPRLPRPRPRPEEVPRP,-0.00242
12,RRIRRRPPRLPRPRPRPEEEPRP,0.855
13,RRIRRRPPRLPRPRPRPGMPPRP,0.463
14,RRIRPRPPRLPRPRPRPKAKPRP,0.131
15,RRIRRRPPRLPRPRPRPCPKPRP,-0.0745
16,RRIRARPPRLPRPRPRPQHDPRP,-0.117
17,RRIRFRPPRLPRPRPRPVVWPRP,0.408
18,RRIRCRPPRLPRPRPRPVKNPRP,-0.344
19,RRIRLRPPRLPRPRPRPKCRPRP,0.147
20,RRIRIRPPRLPRPRPRPNHGPRP,-0.413
21,RRIRPRPPRLPRPRPRPEAWPRP,-0.0196
22,RRIRDRPPRLPRPRPRPHKYPRP,-0.116
23,RRIRNRPPRLPRPRPRPVFIPRP,-0.459
24,RRIRMRPPRLPRPRPRPHERPRP,1.04
25,RRIRIRPPRLPRPRPRPLQCPRP,0.0339

row,Sequence,shrunken log2 fold change
1,RRIRTRPPRLPRPRPRPYITPRP,-1.19
2,RRIRVRPPRLPRPRPRPICCPRP,-0.0831
3,RRIRMRPPRLPRPRPRPFAIPRP,-0.0351
4,RRIRQRPPRLPRPRPRPSVEPRP,0.218
5,RRIRFRPPRLPRPRPRPQHDPRP,-0.394
6,RRIRGRPPRLPRPRPRPDGQPRP,0.175
7,RRIRYRPPRLPRPRPRPMAAPRP,-0.115
8,RRIRQRPPRLPRPRPRPAYLPRP,0.0774
9,RRIRLRPPRLPRPRPRPDSRPRP,0.0292
10,RRIRQRPPRLPRPRPRPRAEPRP,0.292
11,RRIRTRPPRLPRPRPRPEYTPRP,-0.052
12,RRIRLRPPRLPRPRPRPRSWPRP,0.297
13,RRIRYRPPRLPRPRPRPVCVPRP,-0.339
14,RRIRSRPPRLPRPRPRPECFPRP,3.03
15,RRIRHRPPRLPRPRPRPLELPRP,-0.0293
16,RRIRMRPPRLPRPRPRPFWYPRP,-0.0609
17,RRIRIRPPRLPRPRPRPWDKPRP,-0.0749
18,RRIRTRPPRLPRPRPRPNQAPRP,0.00454
19,RRIRFRPPRLPRPRPRPHTAPRP,-0.337
20,RRIRFRPPRLPRPRPRPFRQPRP,-0.00049
21,RRIRTRPPRLPRPRPRPGKPPRP,0.0978
22,RRIRMRPPRLPRPRPRPHSNPRP,0.0878
23,RRIRGRPPRLPRPRPRPLEVPRP,0.252
24,RRIRHRPPRLPRPRPRPNIFPRP,-0.0903
25,RRIRSRPPRLPRPRPRPCQVPRP,-0.0521

row,Sequence,shrunken log2 fold change
1,RRIRERPPRLPRPRPRPKTVPRP,-0.0153
2,RRIRWRPPRLPRPRPRPPVYPRP,-0.0994
3,RRIRCRPPRLPRPRPRPKEWPRP,0.0878
4,RRIRHRPPRLPRPRPRPDYRPRP,-0.127
5,RRIRFRPPRLPRPRPRPAPTPRP,0.912
6,RRIRLRPPRLPRPRPRPTKYPRP,-0.47
7,RRIRDRPPRLPRPRPRPTPAPRP,0.551
8,RRIRKRPPRLPRPRPRPWMAPRP,0.102
9,RRIRRRPPRLPRPRPRPIKTPRP,0.00866
10,RRIRNRPPRLPRPRPRPAAFPRP,-0.0633
11,RRIRYRPPRLPRPRPRPGGKPRP,0.0336
12,RRIRMRPPRLPRPRPRPRPVPRP,1.17
13,RRIRYRPPRLPRPRPRPISMPRP,0.0342
14,RRIRFRPPRLPRPRPRPGTVPRP,0.0642
15,RRIRNRPPRLPRPRPRPKPWPRP,0.217
16,RRIRDRPPRLPRPRPRPQRMPRP,-0.0312
17,RRIRERPPRLPRPRPRPHHNPRP,-0.817
18,RRIRTRPPRLPRPRPRPNPDPRP,-0.0402
19,RRIRPRPPRLPRPRPRPPWQPRP,0.443
20,RRIRKRPPRLPRPRPRPRLEPRP,0.782
21,RRIRTRPPRLPRPRPRPPLDPRP,0.148
22,RRIRIRPPRLPRPRPRPVREPRP,0.201
23,RRIRLRPPRLPRPRPRPTMRPRP,0.836
24,RRIRGRPPRLPRPRPRPNALPRP,0.474
25,RRIRNRPPRLPRPRPRPRPIPRP,0.333

row,Sequence,shrunken log2 fold change
1,RRIRPRPPRLPRPRPRPPLKPRP,0.441
2,RRIRRRPPRLPRPRPRPLGFPRP,0.592
3,RRIRGRPPRLPRPRPRPVARPRP,0.58
4,RRIRRRPPRLPRPRPRPIIKPRP,-0.265
5,RRIRLRPPRLPRPRPRPTVFPRP,0.156
6,RRIRLRPPRLPRPRPRPYFDPRP,-0.255
7,RRIRFRPPRLPRPRPRPSHAPRP,-0.149
8,RRIRGRPPRLPRPRPRPSHEPRP,-0.418
9,RRIRTRPPRLPRPRPRPLEHPRP,0.104
10,RRIRERPPRLPRPRPRPDLHPRP,-0.262
11,RRIRLRPPRLPRPRPRPSCVPRP,-0.0228
12,RRIRERPPRLPRPRPRPYHRPRP,0.00148
13,RRIRERPPRLPRPRPRPPCFPRP,-0.0819
14,RRIRYRPPRLPRPRPRPNNCPRP,-0.0707
15,RRIRRRPPRLPRPRPRPETHPRP,0.697
16,RRIRPRPPRLPRPRPRPVPEPRP,0.0758
17,RRIRRRPPRLPRPRPRPPCIPRP,0.156
18,RRIRQRPPRLPRPRPRPTIWPRP,-0.0969
19,RRIRMRPPRLPRPRPRPAPHPRP,1.33
20,RRIRSRPPRLPRPRPRPNNTPRP,-0.574
21,RRIRKRPPRLPRPRPRPCKKPRP,-0.0301
22,RRIRRRPPRLPRPRPRPTCDPRP,0.502
23,RRIRARPPRLPRPRPRPDWAPRP,0.524
24,RRIRHRPPRLPRPRPRPWPVPRP,0.155
25,RRIRSRPPRLPRPRPRPCAAPRP,0.312

row,Sequence,shrunken log2 fold change
1,RRIRYRPPRLPRPRPRPTTYPRP,-0.941
2,RRIRQRPPRLPRPRPRPFDDPRP,-0.275
3,RRIRNRPPRLPRPRPRPKDMPRP,-0.0164
4,RRIRVRPPRLPRPRPRPTYDPRP,-0.372
5,RRIRLRPPRLPRPRPRPPEPPRP,0.232
6,RRIRHRPPRLPRPRPRPMSVPRP,-0.294
7,RRIRMRPPRLPRPRPRPWNQPRP,-0.0405
8,RRIRMRPPRLPRPRPRPQRSPRP,0.629
9,RRIRMRPPRLPRPRPRPQDCPRP,0.0414
10,RRIRKRPPRLPRPRPRPTLCPRP,0.403
11,RRIRARPPRLPRPRPRPIWDPRP,0.264
12,RRIRARPPRLPRPRPRPEWLPRP,1.25
13,RRIRYRPPRLPRPRPRPVEVPRP,-0.282
14,RRIRSRPPRLPRPRPRPMRLPRP,0.0162
15,RRIRGRPPRLPRPRPRPEKWPRP,-0.0809
16,RRIRDRPPRLPRPRPRPDEAPRP,0.12
17,RRIRFRPPRLPRPRPRPVKWPRP,0.0401
18,RRIRGRPPRLPRPRPRPSVDPRP,0.861
19,RRIRSRPPRLPRPRPRPFTAPRP,-0.492
20,RRIRDRPPRLPRPRPRPVDSPRP,-0.0208
21,RRIRNRPPRLPRPRPRPRSHPRP,-0.127
22,RRIRARPPRLPRPRPRPRMNPRP,0.183
23,RRIRQRPPRLPRPRPRPPPAPRP,0.804
24,RRIRYRPPRLPRPRPRPVSWPRP,0.106
25,RRIRWRPPRLPRPRPRPGTRPRP,0.377

# Source: the supplement of paper PMC9112550, “Optimization of the antimicrobial peptide Bac7 by deep mutational scanning” (BMC Biology, 2022)
